One substance from patent publication US20080219947A1 can be followed below.

The target of experiment [1] is epitope-tagged K^b (K^bR48Q.R50P), unattached (murine) (UniProt P01901). The experiment in a line: flow cytometry on LM1.8 transfectants.
Experiment [2] has as its target β2-microglobulin(L20).etK^b single chain dimer (murine) (UniProt P01887). Nature of the experiment: flow cytometry on LM1.8 transfectants. (In general: In flow cytometry, cells or beads pass a laser one at a time.)
Experiment [3] addresses MCMV.β2m^b.L^d single chain trimer (murine) (UniProt P01887). The experiment in a line: flow cytometry on DLD-1 transfectants, 64-3-7 against 30-5-7 staining.
Experiment [4] concerns the target QL9.β2m^b.L^d single chain trimer (murine) (UniProt P01887). The experiment is described as above.
Experiment [5] has as its target p29.β2m^b.L^d single chain trimer (murine) (UniProt P01887). The description is as above.
Experiment [6] concerns the target β2m^b.L^d single chain dimer (murine) (UniProt P01887). Described as above.

Chain of UniProt P01901 (P01901 22-305, stated change not applied): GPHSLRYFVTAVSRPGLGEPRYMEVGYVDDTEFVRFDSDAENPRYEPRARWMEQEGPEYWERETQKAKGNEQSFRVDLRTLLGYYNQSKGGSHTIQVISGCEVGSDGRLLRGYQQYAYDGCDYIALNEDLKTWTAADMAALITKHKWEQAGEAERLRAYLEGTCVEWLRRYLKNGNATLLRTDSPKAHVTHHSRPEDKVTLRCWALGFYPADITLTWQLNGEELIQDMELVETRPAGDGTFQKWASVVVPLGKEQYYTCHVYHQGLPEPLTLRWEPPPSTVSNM

Turning to mAb 64-3-7 (antibody), the open conformers as a fraction of the sum of B8-24-3 and 64-3-7 fluorescence intensity in experiment [1] and in experiment [2] was above 10% in each case. Moreover, the percent of surface molecules detected in an open conformation in experiment [3] was determined as 22%; in experiment [4] it was 22%; in experiment [5], 8%; in experiment [6], 39%.
